In US20230151105A1 (HUTCHISON MEDIPHARMA, published 2023):

T1: human OX40 expressed on the cell surface (human, UniProt P43489 29-277)
T1 sequence (looked up): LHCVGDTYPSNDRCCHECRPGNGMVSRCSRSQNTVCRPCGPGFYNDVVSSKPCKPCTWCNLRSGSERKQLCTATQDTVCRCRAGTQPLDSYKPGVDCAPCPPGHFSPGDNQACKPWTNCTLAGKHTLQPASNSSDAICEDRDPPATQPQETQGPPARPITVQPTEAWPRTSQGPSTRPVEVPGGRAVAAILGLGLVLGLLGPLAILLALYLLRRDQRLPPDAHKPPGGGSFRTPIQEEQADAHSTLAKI

T2: recombinant human OX40-His protein (R & D Systems, Cat 9969-OX) (human, UniProt P43489 29-214)
T2 construct: extracellular domain; Bought protein; also called human OX40 protein; human OX40-His fusion protein; not shown: His tag
T2 sequence (looked up): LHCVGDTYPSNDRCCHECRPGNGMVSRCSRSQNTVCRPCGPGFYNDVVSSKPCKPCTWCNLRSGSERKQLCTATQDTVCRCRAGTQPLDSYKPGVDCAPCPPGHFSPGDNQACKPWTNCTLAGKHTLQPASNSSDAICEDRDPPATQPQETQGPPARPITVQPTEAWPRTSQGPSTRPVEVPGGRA

T3: recombinant OX40-Fc protein (R & D, Cat 3388-OX) (human, UniProt P43489 29-214)
T3 construct: extracellular domain; also called OX40 (R & D systems, Cat 3388-OX); not shown: Fc tag
T3 sequence (looked up): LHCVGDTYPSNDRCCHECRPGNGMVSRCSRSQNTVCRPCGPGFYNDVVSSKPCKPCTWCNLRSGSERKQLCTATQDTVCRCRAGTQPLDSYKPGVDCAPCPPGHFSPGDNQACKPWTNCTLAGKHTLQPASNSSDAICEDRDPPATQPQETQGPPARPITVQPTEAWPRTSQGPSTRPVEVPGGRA


Key:
[1] = target: T1, human OX40 expressed on the cell surface; assay: cell-based or functional assay
[2] = target: T1, human OX40 expressed on the cell surface; assay: FACS on activated human CD4+ T cells
From the text: (§1) Primary human PBMC were isolated from whole blood obtained from healthy donors through density gradient centrifugation with Ficoll-Paque PLUS (GE Healthcare, Cat 17-1440-02). After centrifuge, the cells in the middle layer were collected and washed 3 times with PBS to obtain PBMC. Then, human T cells were isolated with Pan T Cell Isolation Kit (Miltenyi biotec, Cat 130-096-535) by magnetic beads isolation method according to the protocol recommended by the instructions. T cells were resuspended in RPMI 1640 (containing 10% FBS and penicillin/streptomycin bi-antibiotics) medium, and PHA-L and IL-2 (or Con-A and hIL-2) were added for 2-day stimulation to induce the expression of OX40 from the T cells. The activated T cells were washed once with PBS containing 2% FBS, the serially diluted OX40 antibodies were added, and incubated at 4° C. for 30 minutes. The cells were washed twice with PBS containing 2% FBS, PE-labeled anti-human IgG secondary antibody (Biolegend, Cat 409304) (or PE-labeled anti-mouse IgG secondary antibody (Biolegend, Cat 405307)) and APC-CY7 labeled antibody human CD4 antibody (Biolegend, Cat 300518) were added. The binding of OX40 antibody on the surface of CD4 positive T cells was detected by BD Cantoll flow cytometry. A curve was fitted according to the median fluorescence intensity value, and EC₅₀ was calculated.

[3] = target: T2, recombinant human OX40-His protein (R & …); assay: ELISA, human OX40-His coated, anti-mouse IgG-HRP detection
Experimental: The recombinant human OX40-His (R & D, Cat 9969-OX) was coated onto 96-well plates. After blocking, serially diluted mouse serum or antibodies were added and incubated. After washing plates with PBS containing 0.5% Tween20, HRP-labeled anti-mouse IgG secondary antibody was added for incubation, and the plates were developed with […], and the OD450 value was read via a microplate reader.

[4] = target: T1, human OX40 expressed on the cell surface; assay: cell-based or functional assay; remark: listed apart in the source
[5] = target: T2, recombinant human OX40-His protein (R & …); assay: SPR (Biacore), antibody captured on anti-human Fc CM5 chip, human OX40-His as analyte, 1:1 Langmuir
From the text: Biacore is used to determine the binding kinetic parameters by measuring surface plasmon resonance (SPR). This technology was used to detect the microscopic rate constants of the binding (kₐ) and dissociation (kd) of an antibody and an antigen. Based on the kₐ and the kd values, the affinity value of the antibody to the antigen is obtained. Both Biacore instrument and reagents were purchased from GE Healthcare. In particular, anti-human Fc antibody was immobilized on a CM5 sensor chip. The supernatants containing expressed antibody or the purified antibodies were diluted in a mobile phase buffer (10 mM HEPES, 150 mM NaCl, 3 mM EDTA, 0.05% Tween-20, pH 7.4), and flowed through the CM5 chip coated with anti-human Fc antibody. Then the serially diluted human OX40-His fusion proteins flowed through the detection chip to measure the binding of the antigen to the antibody, and then the mobile phase buffer flowed through the chip to detect the dissociation of the antigen from the antibody. The binding and dissociation signal data of the antigen and the antibody were collected at different concentrations, and fitted to the 1:1 Langmuir model to calculate the affinity between the antigen and the antibody.

[6] = target: T1, human OX40 expressed on the cell surface; assay: cell-based or functional assay; remark: listed apart in the source
[7] = target: T1, human OX40 expressed on the cell surface; assay: FACS on activated human T cells
From the text: as §1
According to the detection method described in the preceding Example 1.2, FACS was used to analyze the binding activities of humanized antibodies to OX40 on activated human T cells.

[8] = target: T3, recombinant OX40-Fc protein (R & D, Cat …); assay: blocking ELISA: OX40-Fc coated, antibody titrated, competitor OX40L at 50 ng/ml
Experimental: The plate was washed 3 times with PBS containing 0.5% Tween-20 to remove unbound proteins, then the plates were blocked by adding PBS containing 1% BSA at 200 μl/well, at room temperature for 1 h. After washing the plate 3 times with PBS containing 0.5% Tween-20, the serially diluted anti-OX40 antibodies were added to the 96-well plate at 100 μl/well, and incubated for 1 h at room temperature. The plate was washed 3 times with PBS containing 0.5% Tween-20. […] The plate was washed. 200 μl TMB color developing solution was added to each well for color development, and the reaction was stopped with 2N H2504. On a microplate reader, the O.D. value was detected at 450 nm, and the background O.D. value was measured at 570 nm.

Enhancement of IFNγ production by activated human T cells (ELISA), EC50 [1] | Ratio of IFNγ maximum effect to background (in fold) [1] | EC50 [2] | Agonistic activity on T cells, IFNγ release, EC50 [6] | maximum IFNγ concentration [6] | EC50 [7] | Binder | other results
1.4 nM | 7.6 fold | 0.8 nM |  |  |  | hybridoma-derived antibody 38E11 (antibody, V domains shown, Murine antibody purified from hybridoma supernatant by protein A) VH: QVQLQQPGAELVRPGSSVQLSCKASGYTFTSYWVDWVKQRPGQGLQWIGNIYPSDSETHYNQKFKDKATLTVDKSSSTAYMQLSSLTSEDSAVYYCARSYGYYGTWFAYWGQGTLVTVSA VL: DIVLTQSPASLAVSLGQRATISCRASESVDSSGNSFMHWYQQKPGQPPKLLIYRASNLESGIPARFSGSGSRTDFTLTINPVEADDVATYYCQQSNEDPWTFGGGTKLEIK | EC50 [3]: 0.276 nM
8 nM | 5.6 fold | 0.4 nM |  |  |  | 11D4 (antibody, V domains shown) VH: EVQLVESGGGLVQPGGSLRLSCAASGFTFSSYSMNWVRQAPGKGLEWVSYISSSSSTIDYADSVKGRFTISRDNAKNSLYLQMNSLRDEDTAVYYCARESGWYLFDYWGQGTLVTVSS VL: DIQMTQSPSSLSASVGDRVTITCRASQGISSWLAWYQQKPEKAPKSLIYAASSLQSGVPSRFSGSGSGTDFTLTISSLQPEDFATYYCQQYNSYPPTFGGGTKVEIKR | T-cell agonistic activity, IFNγ released by T cells, EC50 [4]: 5.3 nM; Kd [5]: 2.51 nM; koff [5]: 0.000435 s⁻¹; kon [5]: 173000 M⁻¹ s⁻¹
 |  |  | 0.7 nM | 21600 ng/mL | 5.03 nM | Hu38E11-v1 (antibody, human IgG1, V domains shown, also called Hu38E11-vl) VH: QVQLVQSGAEVKKPGASVKVSCKASGYTFTSYWVDWVRQAPGQGLEWIGNIYPSDSETHYNQKFKDRVTMTVDTSTSTVYMELSSLRSEDTAVYYCARSYGYYGTWFAYWGQGTLVTVSS VL: DIVMTQSPDSLAVSLGERATINCRASESVDSSGNSFMHWYQQKPGQPPKLLIYRASNLESGIPDRFSGSGSGTDFTLTISSVQAEDVAVYYCQQSNEDPWTFGGGTKLEIK | 
 |  |  |  |  |  | Hu38E11 (IgG2) (antibody) heavy: QVQLVQSGAEVKKPGASVKVSCKASGYTFTSYWVDWVRQAPGQGLEWMGNIYPSDSETHYNQKFKDRVTMTRDTSTSTVYMELSSLRSEDTAVYYCARSYGYYGTWFAYWGQGTLVTVSSASTKGPSVFPLAPCSRSTSESTAALGCLVKDYFPEPVTVSWNSGALTSGVHTFPAVLQSSGLYSLSSVVTVPSSNFGTQTYTCNVDHKPSNTKVDKTVERKCCVECPPCPAPPVAGPSVFLFPPKPKDTLMISRTPEVTCVVVDVSHEDPEVQFNWYVDGVEVHNAKTKPREEQFNSTFRVVSVLTVVHQDWLNGKEYKCKVSNKGLPAPIEKTISKTKGQPREPQVYTLPPSREEMTKNQVSLTCLVKGFYPSDIAVEWESNGQPENNYKTTPPMLDSDGSFFLYSKLTVDKSRWQQGNVFSCSVMHEALHNHYTQKSLSLSPGK VL: DIVMTQSPDSLAVSLGERATINCRASESVDSSGNSFMHWYQQKPGQPPKLLIYRASNLESGVPDRFSGSGSGTDFTLTISSLQAEDVAVYYCQQSNEDPWTFGGGTKLEIK | T-cell agonistic activity, IFNγ released by T cells, EC50 [4]: 1.6 nM
 |  |  |  |  |  | Hu38E11 (IgG1 N297A) (antibody, name in EU numbering, Hu38E11 variable regions with a human IgG1 constant region carrying N297A; also called Hu38E11 (hIgG1 N297A)) heavy: not shown VL: DIVMTQSPDSLAVSLGERATINCRASESVDSSGNSFMHWYQQKPGQPPKLLIYRASNLESGVPDRFSGSGSGTDFTLTISSLQAEDVAVYYCQQSNEDPWTFGGGTKLEIK | blocking of OX40L-mediated T cell activation, IFNγ secretion, IC50 [4]: 0.3 nM; inhibition of the expression of luciferase reporter gene under the control of NF-κB, IC50 [4]: 0.2 nM; IC50 [8]: ~0.3 nM
 |  |  | 2.4 nM | 24800 ng/mL | 4.56 nM | humanized 38E11 antibody Hu38E11 (IgG1) (antibody) heavy: not shown VL: DIVMTQSPDSLAVSLGERATINCRASESVDSSGNSFMHWYQQKPGQPPKLLIYRASNLESGVPDRFSGSGSGTDFTLTISSLQAEDVAVYYCQQSNEDPWTFGGGTKLEIK | expression of the luciferase reporter gene under the control of NF-κB, EC50 [4]: 0.7 nM; Kd [5]: 2.36 nM; koff [5]: 0.000394 s⁻¹; kon [5]: 167000 M⁻¹ s⁻¹
 |  |  | 0.9 nM | 21700 ng/mL | 3.02 nM | Hu38E11-v4 (antibody, human IgG1, V domains shown) VH: QVQLVQSGAEVKKPGASVKVSCKASGYTFTSYWVDWVRQAPGQGLEWIGNIYPSDSETHYNQKFKDRVTMTVDTSTSTAYMELSSLRSEDSAVYYCARSYGYYGTWFAYWGQGTLVTVSS VL: DIVMTQSPDSLAVSLGERATINCRASESVDSSGNSFMHWYQQKPGQPPKLLIYRASNLESGIPDRFSGSGSGTDFTLTISSLQAEDVAVYYCQQSNEDPWTFGGGTKLEIK | 
 |  |  | 1 nM | 22500 ng/mL | 3.35 nM | Hu38E11-v2 (antibody, human IgG1, V domains shown) VH: QVQLVQSGAEVKKPGASVKVSCKASGYTFTSYWVDWVRQAPGQGLEWIGNIYPSDSETHYNQKFKDRVTMTVDTSTSTAYMELSSLRSEDSAVYYCARSYGYYGTWFAYWGQGTLVTVSS VL: DIVMTQSPDSLAVSLGERATINCRASESVDSSGNSFMHWYQQKPGQPPKLLIYRASNLESGVPDRFSGSGSGTDFTLTISSLQAEDVAVYYCQQSNEDPWTFGGGTKLEIK | 
 |  |  | 1.7 nM | 22500 ng/mL | 3.48 nM | Hu38E11-v3 (antibody, human IgG1, V domains shown) VH: QVQLVQSGAEVKKPGASVKVSCKASGYTFTSYWVDWVRQAPGQGLEWMGNIYPSDSETHYNQKFKDRVTMTRDTSTSTVYMELSSLRSEDTAVYYCARSYGYYGTWFAYWGQGTLVTVSS VL: DIVMTQSPDSLAVSLGERATINCRASESVDSSGNSFMHWYQQKPGQPPKLLIYRASNLESGIPDRFSGSGSGTDFTLTISSVQAEDVAVYYCQQSNEDPWTFGGGTKLEIK | 
14.7 nM | 9.4 fold | 1.3 nM | 7.1 nM | 27400 ng/mL | 6.23 nM | OX40mAb24 (antibody, V domains shown) VH: QVQLQESGPGLVKPSQTLSLTCAVYGGSFSSGYWNWIRKHPGKGLEYIGYISYNGITYHNPSLKSRITINRDTSKNQYSLQLNSVTPEDTAVYYCARYKYDYDGGHAMDYWGQGTLVTVSS VL: DIQMTQSPSSLSASVGDRVTITCRASQDISNYLNWYQQKPGKAPKLLIYYTSKLHSGVPSRFSGSGSGTDYTLTISSLQPEDFATYYCQQGSALPWTFGQGTKVEIKR | 
